Results as given in the supplement of paper PMC10126150.
± gives the standard deviation of the averaged measurements.

Test system: ATP
Experiment: switch fluorescence ratio, 500 uM ATP over buffer (Cy3 cluster intensity, sum of 5 cycles each) (fold (ratio)); higher = stronger signal-on switching upon ATP binding; sequences stand for … in TCGTCGGCAGCGTCAGATGTGTATAAGAGACAGTTTTTTTTTTTTTTTTTTTTTTTTT…TC
Conditions: aptamer strand: ATP DNA aptamer (quencher-CACCTGGGGGAGTATTGCGGAGGAAGG + anchor), 100 nM annealed; ATP concentration: 500 uM
In short: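 Per cluster, summed Cy3 intensity from the target cycles was divided by that from the buffer cycles to give the fluorescence ratio, then averaged per switch-domain sequence. Clusters outside 100-1000 RFU were excluded. The Cy3-labelled switching-strand clusters, on a modified Illumina MiSeq flow-cell, were annealed to 100 nM quencher-labelled ATP aptamer and imaged in selection buffer, then after 15 min with 500 uM ATP at 22 °C, for five cycles with NaOH stripping and re-annealing between them.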
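Also: ATP exposure 15 min at 22 °C before imaging.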

GGGGCGTGAG gave a switch fluorescence ratio of 0.998 ± 0.034.
GGGGCTCATA gave a switch fluorescence ratio of 0.9876 ± 0.0072.
GGGGCTGCGC was tested, and the switch fluorescence ratio was 1.05 ± 0.1.
GGGGCTGGGA gave a switch fluorescence ratio of 0.986 ± 0.027.
Sequence GGGGCTGGTA has a switch fluorescence ratio of 1.003 ± 0.0043.
With GGGGCTGGTT the switch fluorescence ratio was 0.99 ± 0.024.
In the case of GGGGCTTCTG, the switch fluorescence ratio is reported as 1.03 ± 0.019.
For GGGGCTTGGA, the switch fluorescence ratio was 1 ± 0.017.
GGGGCTTGTA gave a switch fluorescence ratio of 1 ± 0.016.
For GGGGCTTTAT, the switch fluorescence ratio was 0.992 ± 0.013.
GGGGCTTTCG was tested, and the switch fluorescence ratio was 1 ± 0.072.
GGGGGAAAG was tested, and the switch fluorescence ratio was 1 ± 0.025.
GGGGGAACAG was tested, and the switch fluorescence ratio was 0.991 ± 0.011.
GGGGGACCCA was tested, and the switch fluorescence ratio was 0.982 ± 0.06.
In the case of GGGGGACTAA, the switch fluorescence ratio is reported as 0.996 ± 0.042.
In the case of GGGGGAGACT, the switch fluorescence ratio is reported as 1 ± 0.051.
GGGGGAGAG was tested, and the switch fluorescence ratio was 0.979 ± 0.034.
In the case of GGGGGAGGTT, the switch fluorescence ratio is reported as 0.977 ± 0.029.
GGGGGATAGC was tested, and the switch fluorescence ratio was 0.991 ± 0.023.
GGGGGATAGG showed a switch fluorescence ratio of 1 ± 0.025.
GGGGGATCAG gave a switch fluorescence ratio of 0.992 ± 0.045.
GGGGGATGCC gave a switch fluorescence ratio of 1.15 ± 0.22.
For GGGGGATGGC, the switch fluorescence ratio was 0.975 ± 0.064.
Sequence GGGGGATGGT has a switch fluorescence ratio of 0.978 ± 0.035.
Sequence GGGGGATTAC has a switch fluorescence ratio of 1.06 ± 0.083.
For GGGGGATTGA, the switch fluorescence ratio was 1.0228 ± 0.00054.
GGGGGATTGT was tested, and the switch fluorescence ratio was 1.02 ± 0.043.
GGGGGATTTA gave a switch fluorescence ratio of 0.992 ± 0.022.
In the case of GGGGGCAAGC, the switch fluorescence ratio is reported as 1.25 ± 0.35.
Sequence GGGGGCAATG has a switch fluorescence ratio of 1.13 ± 0.064.
GGGGGCACGA gave a switch fluorescence ratio of 1.07 ± 0.021.
In the case of GGGGGCAGCC, the switch fluorescence ratio is reported as 1.05 ± 0.083.
GGGGGCAGGA showed a switch fluorescence ratio of 0.987 ± 0.017.
GGGGGCATAT was tested, and the switch fluorescence ratio was 1.02 ± 0.026.
GGGGGCATGA was tested, and the switch fluorescence ratio was 0.966 ± 0.015.
Sequence GGGGGCCGTC has a switch fluorescence ratio of 1.01 ± 0.09.
GGGGGCCTTT gave a switch fluorescence ratio of 0.995 ± 0.02.
For GGGGGCGAAT, the switch fluorescence ratio was 1.01 ± 0.011.
Sequence GGGGGCGCAA has a switch fluorescence ratio of 1.129 ± 0.011.
Sequence GGGGGCGGGG has a switch fluorescence ratio of 1.01 ± 0.03.
In the case of GGGGGCGGTC, the switch fluorescence ratio is reported as 0.997 ± 0.023.
GGGGGCGTCA was tested, and the switch fluorescence ratio was 1.02 ± 0.017.
For GGGGGCTAGT, the switch fluorescence ratio was 0.991 ± 0.056.
In the case of GGGGGCTGAA, the switch fluorescence ratio is reported as 0.985 ± 0.027.
For GGGGGCTTAC, the switch fluorescence ratio was 1.01 ± 0.021.
Sequence GGGGGGAAAA has a switch fluorescence ratio of 0.986 ± 0.025.
GGGGGGAACA was tested, and the switch fluorescence ratio was 1.01 ± 0.029.
For GGGGGGAAGG, the switch fluorescence ratio was 1.01 ± 0.03.
In the case of GGGGGGACAG, the switch fluorescence ratio is reported as 1 ± 0.037.
GGGGGGACCT showed a switch fluorescence ratio of 1.06 ± 0.043.
GGGGGGACTG gave a switch fluorescence ratio of 1.06 ± 0.077.
GGGGGGAGAA was tested, and the switch fluorescence ratio was 1.01 ± 0.039.
With GGGGGGAGAT the switch fluorescence ratio was 1.04 ± 0.077.
For GGGGGGAGCG, the switch fluorescence ratio was 1 ± 0.021.
GGGGGGATAA gave a switch fluorescence ratio of 1.08 ± 0.21.
In the case of GGGGGGATAT, the switch fluorescence ratio is reported as 1.05 ± 0.097.
GGGGGGATTT gave a switch fluorescence ratio of 1.02 ± 0.063.
GGGGGGCCAT gave a switch fluorescence ratio of 1.01 ± 0.025.
GGGGGGCGAC showed a switch fluorescence ratio of 1.02 ± 0.019.
For GGGGGGCGTG, the switch fluorescence ratio was 0.993 ± 0.027.
GGGGGGCTTG showed a switch fluorescence ratio of 1.02 ± 0.043.
GGGGGGGAAA gave a switch fluorescence ratio of 0.99 ± 0.035.
With GGGGGGGACG the switch fluorescence ratio was 0.962 ± 0.055.
Sequence GGGGGGGAGA has a switch fluorescence ratio of 1.02 ± 0.029.
In the case of GGGGGGGCGC, the switch fluorescence ratio is reported as 1.02 ± 0.035.
Work on GGGGGGGGC yielded a switch fluorescence ratio of 0.989 ± 0.061.
Sequence GGGGGGGGCA has a switch fluorescence ratio of 0.985 ± 0.024.
In the case of GGGGGGGGCT, the switch fluorescence ratio is reported as 1 ± 0.045.
GGGGGGGGGT showed a switch fluorescence ratio of 1.01 ± 0.038.
Work on GGGGGGGTGG yielded a switch fluorescence ratio of 1 ± 0.033.
In the case of GGGGGGGTTA, the switch fluorescence ratio is reported as 0.992 ± 0.025.
GGGGGGTCCA showed a switch fluorescence ratio of 1.01 ± 0.023.
Sequence GGGGGGTCGA has a switch fluorescence ratio of 1 ± 0.021.
GGGGGGTCTA showed a switch fluorescence ratio of 1.02 ± 0.024.
Work on GGGGGGTGTG yielded a switch fluorescence ratio of 0.986 ± 0.025.
For GGGGGGTTAT, the switch fluorescence ratio was 0.993 ± 0.026.
For GGGGGTAACT, the switch fluorescence ratio was 1 ± 0.034.
GGGGGTACGA gave a switch fluorescence ratio of 1.01 ± 0.052.
Sequence GGGGGTAGAC has a switch fluorescence ratio of 1.01 ± 0.026.
GGGGGTAGCA was tested, and the switch fluorescence ratio was 1.05 ± 0.077.
GGGGGTAGCG showed a switch fluorescence ratio of 1.02 ± 0.028.
Sequence GGGGGTAGGG has a switch fluorescence ratio of 1.03 ± 0.073.
GGGGGTAGTT gave a switch fluorescence ratio of 1 ± 0.032.
Work on GGGGGTATGA yielded a switch fluorescence ratio of 1.02 ± 0.022.
Work on GGGGGTCATT yielded a switch fluorescence ratio of 0.9511 ± 0.0024.
GGGGGTCGC showed a switch fluorescence ratio of 1 ± 0.065.
GGGGGTCGGA was tested, and the switch fluorescence ratio was 1.03 ± 0.043.
Work on GGGGGTGCGA yielded a switch fluorescence ratio of 1.01 ± 0.026.
GGGGGTGCTC showed a switch fluorescence ratio of 1.01 ± 0.023.
GGGGGTGGAG showed a switch fluorescence ratio of 1 ± 0.041.
With GGGGGTGGCC the switch fluorescence ratio was 0.952 ± 0.098.
With GGGGGTGGTA the switch fluorescence ratio was 0.99 ± 0.045.
GGGGGTGGTT was tested, and the switch fluorescence ratio was 0.99 ± 0.037.
Work on GGGGGTGTTC yielded a switch fluorescence ratio of 0.991 ± 0.028.
GGGGGTGTTG gave a switch fluorescence ratio of 1 ± 0.04.
With GGGGGTTATG the switch fluorescence ratio was 1.01 ± 0.024.
With GGGGGTTATT the switch fluorescence ratio was 0.989 ± 0.051.
GGGGGTTCAT gave a switch fluorescence ratio of 0.979 ± 0.013.
For GGGGGTTTTC, the switch fluorescence ratio was 1.01 ± 0.04.
GGGGTAAAAT showed a switch fluorescence ratio of 1.01 ± 0.035.
GGGGTAAACA gave a switch fluorescence ratio of 0.99 ± 0.038.
For GGGGTAACGG, the switch fluorescence ratio was 0.987 ± 0.036.
For GGGGTAAGAC, the switch fluorescence ratio was 1.02 ± 0.036.
In the case of GGGGTAAGCG, the switch fluorescence ratio is reported as 0.978 ± 0.033.
In the case of GGGGTAAGCT, the switch fluorescence ratio is reported as 0.998 ± 0.023.
GGGGTAATGC was tested, and the switch fluorescence ratio was 1.34 ± 0.18.
In the case of GGGGTACCCA, the switch fluorescence ratio is reported as 0.993 ± 0.018.
Work on GGGGTAGAAA yielded a switch fluorescence ratio of 0.969 ± 0.013.
Sequence GGGGTAGAGT has a switch fluorescence ratio of 0.98 ± 0.017.
For GGGGTAGATA, the switch fluorescence ratio was 1.01 ± 0.012.
GGGGTAGCGC gave a switch fluorescence ratio of 0.974 ± 0.018.
With GGGGTAGCTG the switch fluorescence ratio was 0.962 ± 0.012.
GGGGTAGGCA gave a switch fluorescence ratio of 0.9742 ± 0.0033.
For GGGGTAGTTA, the switch fluorescence ratio was 0.9743 ± 0.0066.
In the case of GGGGTATACT, the switch fluorescence ratio is reported as 1.021 ± 0.0052.
GGGGTATAGG gave a switch fluorescence ratio of 0.9746 ± 0.008.
GGGGTATATG showed a switch fluorescence ratio of 0.995 ± 0.027.
Work on GGGGTATGGA yielded a switch fluorescence ratio of 0.989 ± 0.023.
Work on GGGGTATTAG yielded a switch fluorescence ratio of 0.991 ± 0.03.
GGGGTCAAGC showed a switch fluorescence ratio of 1.01 ± 0.03.
GGGGTCAGCG gave a switch fluorescence ratio of 0.974 ± 0.012.
GGGGTCAGGA was tested, and the switch fluorescence ratio was 1.03 ± 0.029.
Work on GGGGTCCGGT yielded a switch fluorescence ratio of 1.06 ± 0.14.
With GGGGTCGGCT the switch fluorescence ratio was 0.974 ± 0.077.
GGGGTCGGGG was tested, and the switch fluorescence ratio was 1.03 ± 0.041.
In the case of GGGGTCTACC, the switch fluorescence ratio is reported as 0.974 ± 0.014.
GGGGTGAGCT was tested, and the switch fluorescence ratio was 0.981 ± 0.03.
In the case of GGGGTGAGTA, the switch fluorescence ratio is reported as 0.98 ± 0.053.
Sequence GGGGTGCCGG has a switch fluorescence ratio of 0.977 ± 0.092.
GGGGTGGAAT showed a switch fluorescence ratio of 1.03 ± 0.012.
For GGGGTGGCGC, the switch fluorescence ratio was 0.964 ± 0.036.
With GGGGTGGCTG the switch fluorescence ratio was 0.955 ± 0.023.
In the case of GGGGTGGGAA, the switch fluorescence ratio is reported as 0.9795 ± 0.0094.
Work on GGGGTGGGAC yielded a switch fluorescence ratio of 1.044 ± 0.006.
GGGGTGGGCT was tested, and the switch fluorescence ratio was 0.956 ± 0.031.
GGGGTGTGGG showed a switch fluorescence ratio of 1 ± 0.018.
GGGGTTACAT was tested, and the switch fluorescence ratio was 0.9919 ± 0.0072.
In the case of GGGGTTAGGT, the switch fluorescence ratio is reported as 1.01 ± 0.031.
GGGGTTCAGA gave a switch fluorescence ratio of 0.9846 ± 0.0041.
Sequence GGGGTTCCTT has a switch fluorescence ratio of 1 ± 0.034.
GGGGTTCTAG gave a switch fluorescence ratio of 0.999 ± 0.0042.
With GGGGTTCTTA the switch fluorescence ratio was 1.02 ± 0.091.
In the case of GGGGTTCTTT, the switch fluorescence ratio is reported as 1.09 ± 0.14.
For GGGGTTGGAC, the switch fluorescence ratio was 0.9851 ± 0.0016.
With GGGGTTGGAG the switch fluorescence ratio was 0.979 ± 0.022.
In the case of GGGGTTGTCG, the switch fluorescence ratio is reported as 0.989 ± 0.1.
GGGGTTTATA was tested, and the switch fluorescence ratio was 0.997 ± 0.026.
With GGGGTTTCGT the switch fluorescence ratio was 1.01 ± 0.067.
In the case of GGGGTTTGAG, the switch fluorescence ratio is reported as 1.001 ± 0.0057.
GGGGTTTTAG was tested, and the switch fluorescence ratio was 1.01 ± 0.018.
GGGTAAAAAA was tested, and the switch fluorescence ratio was 1.02 ± 0.045.
For GGGTAAAGAT, the switch fluorescence ratio was 1.02 ± 0.021.
GGGTAAAGGG gave a switch fluorescence ratio of 1 ± 0.045.
